Measured values: IntAct's records for PubMed 19966308

B1: Aquaporin-2 (Mus musculus), P56402 (parent)
chain: MWELRSIAFSRAVLAEFLATLLFVFFGLGSALQWASSPPSVLQIAVAFGLGIGTLVQALGHVSGAHINPAVTVACLVGCHVSFLRAAFYVAAQLLGAVAGAAILHEITPVEIRGDLAVNALHNNATAGQAVTVELFLTMQLVLCIFASTDERRSDNLGSPALSIGFSVTLGHLLGIYFTGCSMNPARSLAPAVVTGKFDDHWVFWIGPLVGAVIGSLLYNYLLFPSTKSLQERLAVLKGLEPDTDWEEREVRRRQSVELHSPQSLPRGSKA

Variants of: B1
Conditions: with hsp71_canlf HSPA1, Q7YQC6
hsp71_canlf HSPA1, Q7YQC6, sequence (Q7YQC6 whole entry): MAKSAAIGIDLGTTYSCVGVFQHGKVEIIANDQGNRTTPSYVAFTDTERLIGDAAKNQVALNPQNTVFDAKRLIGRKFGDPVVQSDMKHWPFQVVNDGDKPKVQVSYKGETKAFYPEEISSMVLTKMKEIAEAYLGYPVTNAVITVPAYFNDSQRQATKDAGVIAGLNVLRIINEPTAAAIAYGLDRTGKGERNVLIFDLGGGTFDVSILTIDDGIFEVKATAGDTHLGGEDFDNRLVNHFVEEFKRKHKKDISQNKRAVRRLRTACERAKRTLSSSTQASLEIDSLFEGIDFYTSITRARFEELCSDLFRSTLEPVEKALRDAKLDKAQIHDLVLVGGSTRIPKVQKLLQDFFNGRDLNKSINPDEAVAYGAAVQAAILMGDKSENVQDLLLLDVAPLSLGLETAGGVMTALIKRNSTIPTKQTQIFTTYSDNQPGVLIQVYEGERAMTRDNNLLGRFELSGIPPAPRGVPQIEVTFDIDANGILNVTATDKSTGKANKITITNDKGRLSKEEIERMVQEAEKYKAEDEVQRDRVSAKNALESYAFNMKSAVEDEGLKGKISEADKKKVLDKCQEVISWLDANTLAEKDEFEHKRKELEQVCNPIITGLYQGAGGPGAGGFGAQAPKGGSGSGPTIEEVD

| effect of a mutation on the interaction | Variant |
| --- | --- |
| decreasing interaction | MWELRSIAFSRAVLAEFLATLLFVFFGLGSALQWASSPPSVLQIAVAFGLGIGTLVQALGHVSGAHINPAVTVACLVGCHVSFLRAAFYVAAQLLGAVAGAAILHEITPVEIRGDLAVNALHNNATAGQAVTVELFLTMQLVLCIFASTDERRSDNLGSPALSIGFSVTLGHLLGIYFTGCSMNPARSLAPAVVTGKFDDHWVFWIGPLVGAVIGSLLYNYLLFPSTKSLQERLAVLKGLEPDTDWEEREVRRRQSVELHSPQSLPRGDKA [S269D] |

Variants of: B1
Conditions: with anxa2_canlf ANXA2, Q6TEQ7
anxa2_canlf ANXA2, Q6TEQ7, sequence (Q6TEQ7 whole entry): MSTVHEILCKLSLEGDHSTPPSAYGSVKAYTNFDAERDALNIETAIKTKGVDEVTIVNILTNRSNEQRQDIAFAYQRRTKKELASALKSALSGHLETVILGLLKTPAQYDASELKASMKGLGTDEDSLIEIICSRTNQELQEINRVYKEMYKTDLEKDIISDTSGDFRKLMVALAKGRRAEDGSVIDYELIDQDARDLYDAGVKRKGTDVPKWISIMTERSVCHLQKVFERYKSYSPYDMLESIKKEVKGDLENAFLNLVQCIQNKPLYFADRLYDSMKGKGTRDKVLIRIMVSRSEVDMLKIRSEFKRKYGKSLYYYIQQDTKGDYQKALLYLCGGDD

| effect of a mutation on the interaction | Variant |
| --- | --- |
| increasing interaction | MWELRSIAFSRAVLAEFLATLLFVFFGLGSALQWASSPPSVLQIAVAFGLGIGTLVQALGHVSGAHINPAVTVACLVGCHVSFLRAAFYVAAQLLGAVAGAAILHEITPVEIRGDLAVNALHNNATAGQAVTVELFLTMQLVLCIFASTDERRSDNLGSPALSIGFSVTLGHLLGIYFTGCSMNPARSLAPAVVTGKFDDHWVFWIGPLVGAVIGSLLYNYLLFPSTKSLQERLAVLKGLEPDTDWEEREVRRRQAVELHSPQSLPRGSKA [S256A] |
